Measured values: US20130142788A1 (published 2013)
Where two headings read alike, the source gives them in different places.

T1: recombinant mature dimeric myostatin (human and mouse (mature sequences 100% …, UniProt O08689 268-376))
T1 sequence: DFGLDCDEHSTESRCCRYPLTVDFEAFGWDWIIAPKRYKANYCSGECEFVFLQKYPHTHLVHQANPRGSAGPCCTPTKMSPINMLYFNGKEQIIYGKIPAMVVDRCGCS


Key:
[1] = biological target: T1, recombinant mature dimeric myostatin; experiment: cell-based or functional assay
[2] = biological target: T1, recombinant mature dimeric myostatin; experiment: cell-based or functional assay; remark: listed apart in the source
[3] = biological target: T1, recombinant mature dimeric myostatin; experiment: cell-based or functional assay; remark: listed apart in the source
[4] = biological target: T1, recombinant mature dimeric myostatin; experiment: Kinexa solution phase affinity
Procedure: Kinexa (Sapidyne Instruments) solution phase affinity was used to determine the overall affinity for a range of anti-myostatin molecules. Myostatin beads were prepared either by adsorption (polymethylmethacrylate beads-PMMA) or amine coupling (NHS-activated sepharose beads). The range of anti-myostatin molecules studied necessitated the generation of beads coated with different concentrations of myostatin. For the solution phase portion of the assay, a fixed concentration of antibody was incubated with a broad range of myostatin concentrations and allowed to reach equilibrium by incubation at r.t. for at least 2 h before analysis proceeded. The myostatin beads were then used to determine the amount of free antibody present in the solution phase samples, by means of the free antibody binding to the myostatin bead matrix then detected using an appropriate secondary antibody (either anti-human or anti-mouse depending on the construct being tested) labelled with a fluorescent dye. The binding curves where fitted using the Kinexa Pro analysis software inherent to the machine. Multiple runs using varying starting concentrations of antibody were then compiled and analysed using the n-curve analysis software to give a more accurate determination of affinity.

[5] = biological target: T1, recombinant mature dimeric myostatin; experiment: myostatin competition ELISA, direct capture of myostatin, competitor 10B3
Procedure: (§1) A 96-well ELISA plate was coated at 4° C. overnight with 2.5 μg/ml polyclonal Antibody to Myostatin (R&D Systems AF788). This plate was then washed 3-times in wash buffer (PBS, 0.1% Tween-20) and blocked for 1 hour at room temperature with block solution (PBS, 0.1% Tween-20+1% bovine serum albumin [BSA]). Then, myostatin was added at 1 μg/ml in block buffer during 1 hour followed by 3-times in wash buffer. Antibodies were then titrated out to a suitable concentration range (approximately 10 to 0.01 μg/ml), added to the plate and incubated for 1 hour at room temperature. The plate was then washed 3-times in wash buffer. An anti-human kappa light chain HRP-conjugated antibody (Sigma A7164, used according to the manufacturer's instructions) was used to detect binding of humanized or chimeric antibodies, such as 10B3 chimera (HcLc) or H0L0. The plate was then washed 3-times in wash buffer and developed with an OPD substrate (according to the manufacturer's instructions) and read at 490 nm on a plate reader.
The protocol set out in 5.7 was used but the plates were initially coated at 4° C. overnight with 0.2 μg/ml of myostatin (recombinant in-house, see 1.1 above). 10B3 (final concentration of 0.3 μg/ml) was added into each well and mixed with antibodies titrated out to a suitable concentration range (approximately 10 to 0.01 μg/ml). An anti-mouse HRP-conjugated antibody (DAKO P0260, used according to the manufacturer's instructions) was used to detect binding of the 10B3 antibody.

[6] = biological target: T1, recombinant mature dimeric myostatin; experiment: myostatin competition ELISA, polyclonal Ab capture of myostatin, competitor 10B3
Procedure: as §1
The protocol set out in 5.7 was used with the addition of 10B3 (final concentration of […]) to each well and mixed with the antibodies titrated out to a suitable concentration range (approximately 10 to 0.01 μg/ml). An anti-mouse HRP-conjugated antibody (DAKO P0260, used according to the manufacturer's instructions) was used to detect binding of the 10B3 antibody.

[7] = biological target: T1, recombinant mature dimeric myostatin; experiment: myostatin competition ELISA, biotinylated myostatin on streptavidin, competitor 10B3
Procedure: The protocol set out in 5.7 was used but the plates were initially coated at 4° C. overnight with 5 μg/ml of streptavidin. Biotinylated myostatin was added at 0.3 μg/ml block buffer during 1 hour followed by 3-times in wash buffer. 10B3 (final concentration of 0.2 μg/ml) was added into each well and mixed with antibodies titrated out to a suitable concentration range (approximately 10 to 0.01 μg/ml). An anti-mouse HRP-conjugated antibody (DAKO P0260, used according to the manufacturer's instructions) was used to detect binding of the 10B3 antibody.

[8] = biological target: T1, recombinant mature dimeric myostatin; experiment: ActRIIb neutralisation ELISA: inhibition of 2 nM biotinylated myostatin binding to coated ActRIIb
Procedure: Recombinant soluble ActRIIb (R&D Systems 339-RBB) was coated in wells of an ELISA plate at 1 μg/ml in carbonate buffer overnight at 4° C. Plates were blocked with PBS containing 0.1% tween 20 and 0.1% BSA and washed following standard ELISA protocols. In parallel, 2 nM biotinylated myostatin (in-house reagent, described above) was pre-incubated with a dilution series of the antibodies of Tables 21 and 22 for 30 minutes at 37° C. The biotinylated myostatin:antibody reactions were then added (50 μl/well) to the ActRIIb coated plate for 1 hour at 37° C. Standard wash procedures were followed prior to addition of 50 μl per well of a 1:200 diluted streptavidin-HRP conjugate (R&D Systems. #890803) followed by a further 37° C. incubation for 1 hour. Plates were again washed and assayed at absorbance 490 nm following substrate (R&D Systems, #DY999) and acid stop solution treatment.

[9] = biological target: T1, recombinant mature dimeric myostatin; experiment: cell-based or functional assay; remark: listed apart in the source
[10] = biological target: T1, recombinant mature dimeric myostatin; experiment: ActRIIb receptor binding assay: inhibition of biotinylated myostatin binding to coated ActRIIb
Procedure: Recombinant soluble ActRIIb (R&D Systems 339-RBB) was coated in wells of an ELISA plate at 1 μg/ml in carbonate buffer overnight at 4° C. Plates were blocked (see Block solution above at 2.3) and washed following standard ELISA protocols. In parallel, 2 nM biotinylated myostatin (in-house, as described in 1.1, biotinylated material) was pre-incubated with an antibody dilution series consisting of 10B3, 10B3C, and a negative control (IgG1 isotype control) for 2 hours at 37° C. The biotinylated myostatin:antibody reactions were then added to the ActRIIb coated plate for 1 hour at 37° C. Standard wash procedures were followed prior to addition of 1:1000 diluted streptavidin-HRP conjugate (Dako P0397) and a further 37° C. incubation for 1 hour. Plates were again washed and assayed at absorbance 490 nm following OPD substrate (Sigma) and acid stop solution treatment. Inhibition curves and IC50 values for the inhibition of myostatin activity are shown in FIG. 5 and Table 8 respectively.

Mean IC50, A204 in vitro activity assay [1] | rank among the five most potent, top (1) to bottom (5) [5] | rank among the five most potent, top (1) to bottom (5) [6] | rank among the five most potent, top (1) to bottom (5) [7] | Binder | further results
3.64 nM | 2 rank | 4 rank | 2 rank | H2L2-C91S_F100G_Y (antibody, IgG1, wild type IgG1 Fc) heavy: not shown light: DIQMTQSPSSLSASVGDRVTITCKASQDINSYLSWFQQKPGKAPKSLIYRANRLVDGVPSKFSGSGSGTDYTLTISSLQPEDFATYYCLQSDEFPLTFGQGTKLEIKRTVAAPSVFIFPPSDEQLKSGTASVVCLLNNFYPREAKVQWKVDNALQSGNSQESVTEQDSKDSTYSLSSTLTLSKADYEKHKVYACEVTHQGLSSPVTKSFNRGEC | Mean IC50, A204 in vitro activity assay [2]: 11.1 nM; IC50, myostatin responsive reporter gene neutralisation assay (A204) [3]: 23 nM; Kd [4]: 3.68 nM; IC50 [8]: 1.25 nM
 |  |  |  | H2L2-C91S_F100G_Y Fc Disabled (antibody, human IgG1, kappa) heavy: QVQLVQSGAEVKKPGASVKVSCKASGYSFTGYFMHWVRQAPGQGLEWMGNIYPYNGVSNYNQRFKARVTMTTDTSTSTAYMELRSLRSDDTAVYYCARRYYYGTGPADWYYDVWGQGTLVTVSSASTKGPSVFPLAPSSKSTSGGTAALGCLVKDYFPEPVTVSWNSGALTSGVHTFPAVLQSSGSLSSVVTVPSSSLGTQTYICNVNHKPSNTKVDKKVEPKSCDKTHTCPPCPAPELAGAPSVFLFPPKPKDTLMISRTPEVTCVVVDVSHEDPEVKFNWYVDGVEVHNAKTKPREEQYNSYVVSVLTVLHQDWLNGKEYKCKVSNKALPAPIEKTISKAKGQPREPQVYTLPPSRDELTKNQVSLTCLVKGFYPSDIAVEWESNGQPENNYKTTPPVLDSDGSFFKKLTVDKSRWQQGNVFSCSVMHEALHNHYTQKSLSLSPGK light: DIQMTQSPSSLSASVGDRVTITCKASQDINSYLSWFQQKPGKAPKSLIYRANRLVDGVPSKFSGSGSGTDYTLTISSLQPEDFATYYCLQSDEFPLTFGQGTKLEIKRTVAAPSVFIFPPSDEQLKSGTASVVCLLNNFYPREAKVQWKVDNALQSGNSQESVTEQDSKDSTYSLSSTLTLSKADYEKHKVYACEVTHQGLSSPVTKSFNRGEC | Mean IC50, A204 in vitro activity assay [9]: 1.24 nM
5.51 nM | 3 rank | 2 rank | 4 rank | H2L2-C91S_V102N (antibody, V domains shown) VH: QVQLVQSGAEVKKPGASVKVSCKASGYSFTGYFMHWVRQAPGQGLEWMGNIYPYNGVSNYNQRFKARVTMTTDTSTSTAYMELRSLRSDDTAVYYCARRYYYGTGPADWYFDNWGQGTLVTVSS VL: DIQMTQSPSSLSASVGDRVTITCKASQDINSYLSWFQQKPGKAPKSLIYRANRLVDGVPSKFSGSGSGTDYTLTISSLQPEDFATYYCLQSDEFPLTFGQGTKLEIKR | 
 |  |  |  | H2L2 C91S_G55S F100G_Y (antibody, Fc not disabled) heavy: not shown light: DIQMTQSPSSLSASVGDRVTITCKASQDINSYLSWFQQKPGKAPKSLIYRANRLVDGVPSKFSGSGSGTDYTLTISSLQPEDFATYYCLQSDEFPLTFGQGTKLEIKRTVAAPSVFIFPPSDEQLKSGTASVVCLLNNFYPREAKVQWKVDNALQSGNSQESVTEQDSKDSTYSLSSTLTLSKADYEKHKVYACEVTHQGLSSPVTKSFNRGEC | Mean IC50, A204 in vitro activity assay [2]: 4.42 nM; IC50 [10]: 0.786 nM
5.14 nM |  |  |  | H2L2-C91S (antibody, IgG1, V domains shown) VH: QVQLVQSGAEVKKPGASVKVSCKASGYSFTGYFMHWVRQAPGQGLEWMGNIYPYNGVSNYNQRFKARVTMTTDTSTSTAYMELRSLRSDDTAVYYCARRYYYGTGPADWYFDVWGQGTLVTVSS VL: DIQMTQSPSSLSASVGDRVTITCKASQDINSYLSWFQQKPGKAPKSLIYRANRLVDGVPSKFSGSGSGTDYTLTISSLQPEDFATYYCLQSDEFPLTFGQGTKLEIKR | Mean IC50, A204 in vitro activity assay [9]: 4.08 nM
4.22 nM | 4 rank | 3 rank | 1 rank | H2L2-C91S_V102S (antibody, V domains shown) VH: QVQLVQSGAEVKKPGASVKVSCKASGYSFTGYFMHWVRQAPGQGLEWMGNIYPYNGVSNYNQRFKARVTMTTDTSTSTAYMELRSLRSDDTAVYYCARRYYYGTGPADWYFDSWGQGTLVTVSS VL: DIQMTQSPSSLSASVGDRVTITCKASQDINSYLSWFQQKPGKAPKSLIYRANRLVDGVPSKFSGSGSGTDYTLTISSLQPEDFATYYCLQSDEFPLTFGQGTKLEIKR | 
 |  |  |  | H2L2 C91S_G55S_F100G_Y-Fc disabled (antibody, Fc disabled (L235A, G237A, EU); Light chain L2-C91S by the name; not restated for the disabled form) heavy: not shown light: DIQMTQSPSSLSASVGDRVTITCKASQDINSYLSWFQQKPGKAPKSLIYRANRLVDGVPSKFSGSGSGTDYTLTISSLQPEDFATYYCLQSDEFPLTFGQGTKLEIKRTVAAPSVFIFPPSDEQLKSGTASVVCLLNNFYPREAKVQWKVDNALQSGNSQESVTEQDSKDSTYSLSSTLTLSKADYEKHKVYACEVTHQGLSSPVTKSFNRGEC | IC50 [10]: 0.518 nM
